How the values were obtained:
[1] = substrate: N[C@@H](CS)C(=O)O; assay: Michaelis–Menten kinetics, Ala-NDA assay; type: biochemical, Bacillus subtilis; details: pyridoxal-5′-phosphate (PLP)
purified protein = substrate: N[C@@H](CS)C(=O)O; assay: purified protein; type: biochemical, Staphylococcus aureus; details: pyridoxal-5′-phosphate (PLP) Cys displaces Lys250 and binds PLP to form Cys-aldimine; catalytic Cys389

B1: cysteine desulfurase SufS (BsSufS) (Bacillus subtilis subsp. subtilis str. 168) (protein)
chain: MNITDIREQFPILHQQVNGHDLVYLDSAATSQKPRAVIETLDKYYNQYNSNVHRGVHTLGTRATDGYEGAREKVRKFINAKSMAEIIFTKGTTTSLNMVALSYARANLKPGDEVVITYMEHHANIIPWQQAVKATGATLKYIPLQEDGTISLEDVRETVTSNTKIVAVSHVSNVLGTVNPIKEMAKIAHDNGAVIVVDGAQSTPHMKIDVQDLDCDFFALSSHKMCGPTGVGVLYGKKALLENMEPAEFGGEMIDFVGLYESTWKELPWKFEAGTPIIAGAIGLGAAIDFLEEIGLDEISRHEHKLAAYALERFRQLDGVTVYGPEERAGLVTFNLDDVHPHDVATVLDAEGIAVRAGHHCAQPLMKWLDVTATARASFYLYNTEEEIDKLVEALQKTKEYFTNVF
In the case of B1, the Km [1] is reported as 440 ± 190 µM, the kcat [1] is reported as 0.0817 ± 0.0117 s⁻¹ and the kcat/Km [1] is reported as 185 ± 107 M⁻¹ s⁻¹.

B2: cysteine desulfurase SufS (SaSufS) (Staphylococcus aureus subsp. aureus USA300) (protein)
chain: MAEHSFDVNEVIKDFPILDQKVNGKRLAYLDSTATSQTPVQVLNVLEDYYKRYNSNVHRGVHTLGSLATDGYENARETVRRFINAKYFEEIIFTRGTTASINLVAHSYGDANVEEGDEIVVTEMEHHANIVPWQQLAKRKNATLKFIPMTADGELNIEDIKQTINDKTKIVAIAHISNVLGTINDVKTIAEIAHQHGAIISVDGAQAAPHMKLDMQEMNADFYSFSGHKMLGPTGIGVLFGKRELLQKMEPIEFGGDMIDFVSKYDATWADLPTKFEAGTPLIAQAIGLAEAIRYLERIGFDAIHKYEQELTIYAYEQMSAIEGIEIYGPPKDRRAGVITFNLQDVHPHDVATAVDTEGVAVRAGHHCAQPLMKWLNVSSTARASFYIYNTKEDVDQLINALKQTKEFFSYEF
B2 was tested, and the Km (purified protein) was 600 ± 170 µM, the kcat (purified protein) was 0.0683 ± 0.00833 s⁻¹ and the kcat/Km (purified protein) was 113 ± 45 M⁻¹ s⁻¹.

From publication PMC11851464, “Development of a Spectrophotometric Assay for the Cysteine Desulfurase from Staphylococcus aureus” (Antibiotics, 2025)
